According to paper PMC10778704, “Comparative Analysis of Cyclization Techniques in Stapled Peptides: Structural Insights into Protein–Protein Interactions in a SARS-CoV-2 Spike RBD/hACE2 Model System” (International Journal of Molecular Sciences, 2023):
Bridge positions count the residues as written; N and C are the ends. Square brackets hold non-standard residues; d marks the D form. Peptide text beside a SMILES is read from it. S5 = C=CCCC[C@](C)(N)C(=O)O

What was measured:
[1] = circular dichroism; details: 10 mM Na phosphate; pH 7.4; 25 °C; 100 uM
[2] = in vitro; details: rat, plasma
[3] = 37 °C, comparison in words

CC(=O)N[C@@H](CC(=O)O)C(=O)N[C@@H](CCCCN)C(=O)N[C@@H]1Cc2cn(nn2)CCCC[C@@H](C(=O)N[C@@H](CCC(=O)O)C(=O)N[C@@H](CC(=O)O)C(N)=O)NC(=O)[C@H](CCC(=O)O)NC(=O)[C@H](Cc2c[nH]cn2)NC(=O)[C@H](CC(N)=O)NC1=O
helicity [1]: 5.2%

CC(=O)N[C@@H](CC(=O)O)C(=O)N[C@@H](CCCCN)C(=O)N[C@H]1CSCc2ccc(cc2)CSC[C@@H](C(=O)N[C@@H](CCC(=O)O)C(=O)N[C@@H](CC(=O)O)C(N)=O)NC(=O)[C@H](CCC(=O)O)NC(=O)[C@H](Cc2c[nH]cn2)NC(=O)[C@H](CC(N)=O)NC1=O
helicity [1]: 5%

CC(=O)N[C@@H](CC(=O)O)C(=O)N[C@@H](CCCCN)C(=O)N[C@H]1Cn2cc(nn2)CCc2cn(nn2)C[C@@H](C(=O)N[C@@H](CCC(=O)O)C(=O)N[C@@H](CC(=O)O)C(N)=O)NC(=O)[C@H](CCC(=O)O)NC(=O)[C@H](Cc2c[nH]cn2)NC(=O)[C@H](CC(N)=O)NC1=O
helicity [1]: 8.2%

CC(=O)N[C@@H](Cc1c[nH]cn1)C(=O)N[C@@H](CCC(=O)O)C(=O)N[C@@H]1Cc2cn(nn2)CCCC[C@@H](C(=O)N[C@@H](Cc2ccc(O)cc2)C(=O)N[C@@H](CCC(N)=O)C(N)=O)NC(=O)[C@H](CC(C)C)NC(=O)[C@H](CC(=O)O)NC(=O)[C@H](CCC(=O)O)NC1=O
helicity [1]: 25.7%

CC(=O)N[C@@H](Cc1c[nH]cn1)C(=O)N[C@@H](CCC(=O)O)C(=O)N[C@H]1CCCCn2cc(nn2)C[C@H](C(=O)N[C@@H](Cc2ccc(O)cc2)C(=O)N[C@@H](CCC(N)=O)C(N)=O)NC(=O)[C@H](CC(C)C)NC(=O)[C@H](CC(=O)O)NC(=O)[C@H](CCC(=O)O)NC1=O
helicity [1]: 18.1%

CC(=O)N[C@@H](Cc1c[nH]cn1)C(=O)N[C@@H](CCC(=O)O)C(=O)N[C@H]1Cn2cc(nn2)CCc2cn(nn2)C[C@@H](C(=O)N[C@@H](Cc2ccc(O)cc2)C(=O)N[C@@H](CCC(N)=O)C(N)=O)NC(=O)[C@H](CC(C)C)NC(=O)[C@H](CC(=O)O)NC(=O)[C@H](CCC(=O)O)NC1=O
helicity [1]: 50.7%

CC(=O)N[C@@H](CC(=O)O)C(=O)N[C@@H](CCCCN)C(=O)N[C@H]1CC(=O)NCCCC[C@@H](C(=O)N[C@@H](CCC(=O)O)C(=O)N[C@@H](CC(=O)O)C(N)=O)NC(=O)[C@H](CCC(=O)O)NC(=O)[C@H](Cc2c[nH]cn2)NC(=O)[C@H](CC(N)=O)NC1=O (Ac-DKDNHEKED-NH2; lactam 3-7)
helicity [1]: 37.2%

CC(=O)N[C@@H](CC(=O)O)C(=O)N[C@@H](CCCCN)C(=O)N[C@H]1CCCCNC(=O)C[C@@H](C(=O)N[C@@H](CCC(=O)O)C(=O)N[C@@H](CC(=O)O)C(=O)N[C@H]2CCCCNC(=O)C[C@@H](C(N)=O)NC(=O)[C@H](CCC(N)=O)NC(=O)[C@H](Cc3ccc(O)cc3)NC(=O)[C@H](Cc3ccccc3)NC2=O)NC(=O)[C@H](CCC(=O)O)NC(=O)[C@H](Cc2c[nH]cn2)NC(=O)[C@H](CC(N)=O)NC1=O (Ac-DKKNHEDEDKFYQD-NH2; lactam 3-7, 10-14)
helicity [1]: 25.2%

CC(=O)N[C@@H](CC(=O)O)C(=O)N[C@@H](CCCCN)C(=O)N[C@@]1(C)CCC/C=C/CCC[C@@](C)(C(=O)N[C@@H](CCC(=O)O)C(=O)N[C@@H](CC(=O)O)C(N)=O)NC(=O)[C@H](CCC(=O)O)NC(=O)[C@H](Cc2c[nH]cn2)NC(=O)[C@H](CC(N)=O)NC1=O (Ac-DK[S5]NHE[S5]ED-NH2; staple (E) 3-7)
helicity [1]: 4.7%

CC(=O)N[C@@H](Cc1c[nH]cn1)C(=O)N[C@@H](CCC(=O)O)C(=O)N[C@H]1CC(=O)NCCCC[C@@H](C(=O)N[C@@H](Cc2ccc(O)cc2)C(=O)N[C@@H](CCC(N)=O)C(N)=O)NC(=O)[C@H](CC(C)C)NC(=O)[C@H](CC(=O)O)NC(=O)[C@H](CCC(=O)O)NC1=O (Ac-HEDEDLKYQ-NH2; lactam 3-7)
helicity [1]: 35.1%

CC(=O)N[C@@H](Cc1c[nH]cn1)C(=O)N[C@@H](CCC(=O)O)C(=O)N[C@H]1CCCCNC(=O)CC[C@@H](C(=O)N[C@@H](Cc2ccc(O)cc2)C(=O)N[C@@H](CCC(N)=O)C(N)=O)NC(=O)[C@H](CC(C)C)NC(=O)[C@H](CC(=O)O)NC(=O)[C@H](CCC(=O)O)NC1=O (Ac-HEKEDLEYQ-NH2; lactam 3-7)
helicity [1]: 4.6%

C=CCCC[C@](C)(NC(=O)[C@H](CC(C)C)NC(=O)[C@H](CC(=O)O)NC(=O)[C@H](CCC(=O)O)NC(=O)[C@](C)(CCCC=C)NC(=O)[C@H](CCC(=O)O)NC(=O)[C@H](Cc1c[nH]cn1)NC(C)=O)C(=O)N[C@@H](Cc1ccc(O)cc1)C(=O)N[C@@H](CCC(N)=O)C(N)=O (Ac-HE[S5]EDL[S5]YQ-NH2)
helicity [1]: 11%

CC(=O)N1CCC[C@H]1C(=O)N[C@@H](CC(=O)O)C(=O)N[C@@H](CCCCN)C(=O)N[C@H]1CCCCNC(=O)C[C@@H](C(=O)N[C@@H](CCC(=O)O)C(=O)N[C@@H](CC(=O)O)C(N)=O)NC(=O)[C@H](CCC(=O)O)NC(=O)[C@H](Cc2c[nH]cn2)NC(=O)[C@H](CC(N)=O)NC1=O (Ac-PDKKNHEDED-NH2; lactam 4-8)
helicity [1]: 89.7%

CC(=O)N1CCC[C@H]1C(=O)N[C@@H](Cc1c[nH]cn1)C(=O)N[C@@H](CCC(=O)O)C(=O)N[C@H]1CCCCNC(=O)C[C@@H](C(=O)N[C@@H](Cc2ccc(O)cc2)C(=O)N[C@@H](CCC(N)=O)C(N)=O)NC(=O)[C@H](CC(C)C)NC(=O)[C@H](CC(=O)O)NC(=O)[C@H](CCC(=O)O)NC1=O (Ac-PHEKEDLDYQ-NH2; lactam 4-8)
helicity [1]: 56.7%

CC(=O)N[C@@H](CC(=O)O)C(=O)N[C@@H](CCCCN)C(=O)N[C@H]1CCCCNC(=O)C[C@@H](C(=O)N[C@@H](CCC(=O)O)C(=O)N[C@@H](CC(=O)O)C(N)=O)NC(=O)[C@H](CCC(=O)O)NC(=O)[C@H](Cc2c[nH]cn2)NC(=O)[C@H](CC(N)=O)NC1=O [compound 3] (Ac-DKKNHEDED-NH2; lactam 3-7)
half-life [2]: 2.9 h
helicity [1]: 49.9%

CC(=O)N[C@@H](CC(=O)O)C(=O)N[C@@H](CCCCN)C(=O)N[C@@]1(C)CCC/C=C\CCC[C@@](C)(C(=O)N[C@@H](CCC(=O)O)C(=O)N[C@@H](CC(=O)O)C(N)=O)NC(=O)[C@H](CCC(=O)O)NC(=O)[C@H](Cc2c[nH]cn2)NC(=O)[C@H](CC(N)=O)NC1=O [peptide 10] (Ac-DK[S5]NHE[S5]ED-NH2; staple (Z) 3-7)
half-life [2]: 4 h
helicity [1]: 68.9%

CC(=O)N[C@@H](Cc1c[nH]cn1)C(=O)N[C@@H](CCC(=O)O)C(=O)N[C@@]1(C)CCC/C=C/CCC[C@@](C)(C(=O)N[C@@H](Cc2ccc(O)cc2)C(=O)N[C@@H](CCC(N)=O)C(N)=O)NC(=O)[C@H](CC(C)C)NC(=O)[C@H](CC(=O)O)NC(=O)[C@H](CCC(=O)O)NC1=O [peptide 11, Ac-NH-His-Glu-[S5-Glu-Asp-Leu-S5]-Tyr-Gln-CO-NH2] (Ac-HE[S5]EDL[S5]YQ-NH2; staple (E) 3-7)
half-life [2]: 6.8 h
Degradation / stability in rat plasma over 24 h [3]: significantly more stable
helicity [1]: 53.5%

Ac-DKFNHEAED-NH2 [peptide 1]
Degradation / stability in rat plasma over 24 h [3]: levels of degradation similar to those of 8-amino acid-long AngII

Ac-HEAEDLFYQ-NH2 [peptide 2]
Degradation / stability in rat plasma over 24 h [3]: levels of degradation similar to those of 8-amino acid-long AngII
